Data published in patent publication US20090298765A1 (Takeda / Millennium, published 2009).
Non-standard residues stand in square brackets, D forms with d. No end group written: not given here. *: point of attachment. GuAmb = 4-guanidinomethylbenzoyl, N=C(N)NCc1ccc(C(=O)*)cc1; Phe(4-F) = N[C@@H](Cc1ccc(F)cc1)C(=O)O; Cyclohexanecarbonyl = O=C(C1CCCCC1)*; Arg(Me) = CNC(=N)NCCC[C@H](N)C(=O)O; 4Pal = N[C@@H](Cc1ccncc1)C(=O)O; d3Pal = N[C@H](Cc1cccnc1)C(=O)O; d4Pal = N[C@H](Cc1ccncc1)C(=O)O; Cha = N[C@@H](CC1CCCCC1)C(=O)O; amidino = N=C(N)*; azaGly = NNC(=O)O

Columns and labels:
[1] = biological target: T1, human OT7T175 (metastin receptor) (human, UniProt Q969F8 1-398); assay: competition with Cy-5 metastin (40-54) on hOT7T175-CHO cells, FMAT
T1 construct: expressed on CHO cells; also called hOT7T175; hOT7T175-expressed CHO cells
Protocol: hOT7T175-Expressed CHO cells were cultured in MEM-α medium (nucleic acid-free) containing 10% dialyzed serum. The medium was removed and the adhered cells were washed with PBS. Then, PBS containing 5 mM EDTA was added and the cells were scraped from a flask with a cell scraper.
To each well of a 96-Well Black Clear Bottom Microplate (Applied Biosystems, Inc.), 10 μL of assay buffer containing 1% dimethylsulfoxide was added to examine total binding, 10 μL of 10 μM non-labeled peptide (having the same amino acid sequence as that of labeled one) solution diluted with assay buffer to examine non-specific binding, and 10 μL of a test compound diluted with assay buffer to examine a binding inhibition activity of the test compound, and furthermore, 90 μL each of the cell suspension was dispensed to each well. […] Specific binding is calculated as non-specific binding subtracted from total binding. The binding inhibition activity of a test compound is shown by a ratio of the value obtained by subtracting a measured value in presence of a test compound from the total binding to the specific binding.

[2] = biological target: T1, human OT7T175 (metastin receptor); assay: cell-based or functional assay
[3] = biological target: T1, human OT7T175 (metastin receptor); assay: cell-based or functional assay; remark: listed apart in the source

T1 sequence (Q969F8 whole entry L364H): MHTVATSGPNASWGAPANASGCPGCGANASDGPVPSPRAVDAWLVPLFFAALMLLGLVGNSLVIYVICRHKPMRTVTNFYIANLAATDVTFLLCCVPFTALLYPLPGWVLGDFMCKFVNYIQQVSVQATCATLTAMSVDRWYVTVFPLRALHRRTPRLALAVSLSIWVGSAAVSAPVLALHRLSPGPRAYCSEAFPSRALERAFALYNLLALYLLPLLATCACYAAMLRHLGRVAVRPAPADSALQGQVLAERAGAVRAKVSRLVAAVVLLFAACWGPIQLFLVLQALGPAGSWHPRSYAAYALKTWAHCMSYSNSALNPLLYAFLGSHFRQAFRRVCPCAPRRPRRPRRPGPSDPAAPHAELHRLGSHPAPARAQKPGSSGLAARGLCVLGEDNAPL

| Binder | IC50 [1] [nM] | Ca ion level-increasing activity (FLIPR) [2] | Ca ion level-increasing activity (FLIPR, 40 s) [3] [EC50/MS10 EC50] |
| --- | --- | --- | --- |
| Cyclohexanecarbonyl-NSF[azaGly]L[Arg(Me)]F-NH2 (also called Compound No. 278) [des(1-3)-Cyclohexanecarbonyl-[AzaGly7,Arg(Me)9]MS10] | 110 | 2 x Metastin (1-54) | – |
| [dY]INSF[azaGly]L[Arg(Me)]F-NH2 (also called Compound No. 240) [des(1)-[D-Tyr2,Ile3,AzaGly7,Arg(Me)9]MS10] | 17 | – | 4.9 |
| [dY]SNSF[azaGly]L[Arg(Me)]F-NH2 (also called Compound No. 239) [des(1)-[D-Tyr2,Ser3,AzaGly7,Arg(Me)9]MS10] | 120 | – | 6.7 |
| [d3Pal][dN][Cha]NSF[azaGly]L[Arg(Me)]F-NH2 (N-terminus assumed; SMILES CNC(=N)NCCC[C@H](NC(=O)[C@H](CC(C)C)NC(=O)NNC(=O)[C@H](Cc1ccccc1)NC(=O)[C@H](CO)NC(=O)[C@H](CC(N)=O)NC(=O)[C@H](CC1CCCCC1)NC(=O)[C@@H](CC(N)=O)NC(=O)[C@H](N)Cc1cccnc1)C(=O)N[C@@H](Cc1ccccc1)C(N)=O, also called Compound No. 290) [[D-Pya(3)1,D-Asn2,Cha3,AzaGly7,Arg(Me)9]MS10] | 1.4 | 1 x Metastin (1-54) | – |
| [d3Pal][dY][Cha]NSF[azaGly]L[Arg(Me)]F-NH2 (N-terminus assumed; SMILES CNC(=N)NCCC[C@H](NC(=O)[C@H](CC(C)C)NC(=O)NNC(=O)[C@H](Cc1ccccc1)NC(=O)[C@H](CO)NC(=O)[C@H](CC(N)=O)NC(=O)[C@H](CC1CCCCC1)NC(=O)[C@@H](Cc1ccc(O)cc1)NC(=O)[C@H](N)Cc1cccnc1)C(=O)N[C@@H](Cc1ccccc1)C(N)=O, also called Compound No. 291) [[D-Pya(3)1,D-Tyr2,Cha3,AzaGly7,Arg(Me)9]MS10] | 0.41 | 2 x Metastin (1-54) | – |
| YNWNSFGL[Arg(Me)]F-NH2 (also called Compound No. 82) [[Arg(Me)9]MS10] | 4.1 | – | 1 |
| [dY]NWNSFGL[Arg(Me)]F-NH2 (also: bond 6-7 CONH replaced by NHCO (reversed)) [[6Ψ7,NHCO,D-Tyr1,Arg(Me)9]MS10] | – | 3 x Metastin (1-54) | 3.1 |
| WNSF[azaGly]LR(Me)F-NH2 (N-terminus assumed; SMILES CNC(=N)NCCC[C@H](NC(=O)[C@H](CC(C)C)NC(=O)NNC(=O)[C@H](Cc1ccccc1)NC(=O)[C@H](CO)NC(=O)[C@H](CC(N)=O)NC(=O)[C@@H](N)Cc1c[nH]c2ccccc12)C(=O)N[C@@H](Cc1ccccc1)C(N)=O, also called Compound No. 271) [des(1-2)-[AzaGly7,Arg(Me)9]MS10] | 120 | 1 x Metastin (1-54) | – |
| Ac-WNSF[azaGly]L[Arg(Me)]F-NH2 (SMILES CNC(=N)NCCC[C@H](NC(=O)[C@H](CC(C)C)NC(=O)NNC(=O)[C@H](Cc1ccccc1)NC(=O)[C@H](CO)NC(=O)[C@H](CC(N)=O)NC(=O)[C@H](Cc1c[nH]c2ccccc12)NC(C)=O)C(=O)N[C@@H](Cc1ccccc1)C(N)=O, also called Compound No. 272) [des(1-2)-Acetyl-[AzaGly7,Arg(Me)9]MS10] | 540 | 2 x Metastin (1-54) | – |
| Y[dN]WNSFGLRF-NH2 [[D-Asn2]MS10] | – | – | 2.7 |
| {n‑hexanoyl}-NSF[azaGly]L[Arg(Me)]F-NH2 (also called Compound No. 277) [des(1-3)-n-Hexanoyl-[AzaGly7,Arg(Me)9]MS10] | 54 | 2 x Metastin (1-54) | – |
| amidino-WNSF[azaGly]L[Arg(Me)]F-NH2 (SMILES CNC(=N)NCCC[C@H](NC(=O)[C@H](CC(C)C)NC(=O)NNC(=O)[C@H](Cc1ccccc1)NC(=O)[C@H](CO)NC(=O)[C@H](CC(N)=O)NC(=O)[C@H](Cc1c[nH]c2ccccc12)NC(=N)N)C(=O)N[C@@H](Cc1ccccc1)C(N)=O, also called Compound No. 273) [des(1-2)-Amidino-[AzaGly7,Arg(Me)9]MS10] | 300 | 5 x Metastin (1-54) | – |
| YNWNSXGLRF (D-Tyr1; Pya(2)6; Arg(Me)9; C-terminal amide, also called Compound No. 281) [[D-Tyr1,Pya(2)6,Arg(Me)9]MS10] | 230 | 0.5 x Metastin (1-54) | – |
| [d3Pal]FNSF[azaGly]L[Arg(Me)]F-NH2 (N-terminus assumed; SMILES CNC(=N)NCCC[C@H](NC(=O)[C@H](CC(C)C)NC(=O)NNC(=O)[C@H](Cc1ccccc1)NC(=O)[C@H](CO)NC(=O)[C@H](CC(N)=O)NC(=O)[C@H](Cc1ccccc1)NC(=O)[C@H](N)Cc1cccnc1)C(=O)N[C@@H](Cc1ccccc1)C(N)=O, also called Compound No. 256) [des(1)-[D-Pya(3)2,Phe3,AzaGly7,Arg(Me)9]MS10] | 22 | 1 x Metastin (1-54) | – |
| [d3Pal]WNSF[azaGly]L[Arg(Me)]F-NH2 (also called Compound No. 289; [D-Pya(3)2,AzaGly7,Arg(Me)9]MS10-(2-10)) [des(1)-[D-Pya(3)2,AzaGly7,Arg(Me)9]MS10] | 8.4 | 1 x Metastin (1-54) | – |
| [d3Pal]NWNSF[azaGly]L[Arg(Me)]F-NH2 (N-terminus assumed; SMILES CNC(=N)NCCC[C@H](NC(=O)[C@H](CC(C)C)NC(=O)NNC(=O)[C@H](Cc1ccccc1)NC(=O)[C@H](CO)NC(=O)[C@H](CC(N)=O)NC(=O)[C@H](Cc1c[nH]c2ccccc12)NC(=O)[C@H](CC(N)=O)NC(=O)[C@H](N)Cc1cccnc1)C(=O)N[C@@H](Cc1ccccc1)C(N)=O, also called Compound No. 258) [[D-Pya(3)1,AzaGly7,Arg(Me)9]MS10] | 90 | 2 x Metastin (1-54) | – |
| [dY]NWNSFGL[Arg(Me)]F-NH2 (also: bond 6-7 CONH replaced by CH2NH, also called Compound No. 308) [[6Ψ7,CH2NH,D-Tyr1,Arg(Me)9]MS10] | 350 | – | 2.6 |
| {4‑(3-indolyl)butyryl}-NSF[azaGly]L[Arg(Me)]F-NH2 (also called Compound No. 267) [des(1-3)-4-(3-Indolyl)butyryl-[AzaGly7,Arg(Me)9]MS10] | 360 | 2 x Metastin (1-54) | – |
| [d4Pal][dN][Cha]NSF[azaGly]L[Arg(Me)]F-NH2 (N-terminus assumed; SMILES CNC(=N)NCCC[C@H](NC(=O)[C@H](CC(C)C)NC(=O)NNC(=O)[C@H](Cc1ccccc1)NC(=O)[C@H](CO)NC(=O)[C@H](CC(N)=O)NC(=O)[C@H](CC1CCCCC1)NC(=O)[C@@H](CC(N)=O)NC(=O)[C@H](N)Cc1ccncc1)C(=O)N[C@@H](Cc1ccccc1)C(N)=O, also called Compound No. 306) [[D-Pya(4)1,D-Asn2,Cha3,AzaGly7,Arg(Me)9]MS10] | 4.4 | 2 x Metastin (1-54) | – |
| [dY]NWNSFGLRF (not fully specified (C-terminus); also: C-terminal thioamide (CSNH2)) [[10Ψ,CSNH,D-Tyr1]MS10] | – | – | 1.5 |
| [dY]NFNSFF[azaGly]L[Arg(Me)]F-NH2 (N-terminus assumed; SMILES CNC(=N)NCCC[C@H](NC(=O)[C@H](CC(C)C)NC(=O)NNC(=O)[C@H](Cc1ccccc1)NC(=O)[C@H](Cc1ccccc1)NC(=O)[C@H](CO)NC(=O)[C@H](CC(N)=O)NC(=O)[C@H](Cc1ccccc1)NC(=O)[C@H](CC(N)=O)NC(=O)[C@H](N)Cc1ccc(O)cc1)C(=O)N[C@@H](Cc1ccccc1)C(N)=O, printed in three-letter code: D-Tyr-Asn-Phe-Asn-Ser-Phe-Phe-AzaGly-Leu-Arg(Me)-Phe-NH2; also called Compound No. 270) [Endo-Phe5a-[D-Tyr1,Phe3,AzaGly7,Arg(Me)9]MS10] | 15 | 1 x Metastin (1-54) | – |
| [dY]NWNSF[azaGly]L[Arg(Me)][Phe(4-F)]-NH2 (also called Compound No. 318) [[D-Tyr1,AzaGly7,Arg(Me)9,Phe(4F)10]MS10] | 0.99 | – | 2.9 |
| [dY][dN][4Pal]NSF[azaGly]L[Arg(Me)][Phe(4-F)]-NH2 (N-terminus assumed; SMILES CNC(=N)NCCC[C@H](NC(=O)[C@H](CC(C)C)NC(=O)NNC(=O)[C@H](Cc1ccccc1)NC(=O)[C@H](CO)NC(=O)[C@H](CC(N)=O)NC(=O)[C@H](Cc1ccncc1)NC(=O)[C@@H](CC(N)=O)NC(=O)[C@H](N)Cc1ccc(O)cc1)C(=O)N[C@@H](Cc1ccc(F)cc1)C(N)=O, also called Compound No. 317) [[D-Tyr1,D-Asn2,Pya(4)3,AzaGly7,Arg(Me)9,Phe(4F)10]MS10] | 2.1 | 1 x Metastin (1-54) | – |
| GuAmb-F[azaGly]L[Arg(Me)]F-NH2 (SMILES CNC(=N)NCCC[C@H](NC(=O)[C@H](CC(C)C)NC(=O)NNC(=O)[C@H](Cc1ccccc1)NC(=O)c1ccc(CNC(=N)N)cc1)C(=O)N[C@@H](Cc1ccccc1)C(N)=O) [des(1-5)-GuAmb-[AzaGly7,Arg(Me)9]MS10] | – | 2 x Metastin (1-54) | 4.9 |
| [dY]N[d4Pal]NSF[azaGly]L[Arg(Me)]F-NH2 (also called Compound No. 302) [[D-Tyr1,D-Pya(4)3,AzaGly7,Arg(Me)9]MS10] | 7.7 | 2 x Metastin (1-54) | – |
| {4‑imidazoleacetyl}-NSF[azaGly]L[Arg(Me)]F-NH2 (also called Compound No. 323) [des(1-3)-4-Imidazoleacetyl-[AzaGly7,Arg(Me)9]MS10] | 280 | 1 x Metastin (1-54) | – |
| Y[dN][4Pal]NSF[azaGly]L[Arg(Me)]F-NH2 (also called Compound No. 304) [[D-Asn2,Pya(4)3,AzaGly7,Arg(Me)9]MS10] | 5 | 3 x Metastin (1-54) | – |
